Our source for the EC50 values is PMC8993412 (Journal of Molecular Biology, 2022).

The experiment concerns the target SARS-CoV-2 nucleocapsid (N) protein, full-length (recombinant) (SARS-CoV-2, reference, UniProt P0DTC9). Nature of the experiment: ELISA. A general note: ELISA stands for enzyme-linked immunosorbent assay.

B1: IgG 16485 (anti-N) (antibody, V domains shown)
VH: EVQLVESGGGLVQPGGSLRLSCAASGFNIYSSSIHWVRQAPGKGLEWVAYISSYSGYTSYADSVKGRFTISADTSKNTAYLQMNSLRAEDTAVYYCARVPWYYAYSFGFFASFGGMDYWGQGTLVTVSS
VL: DIQMTQSPSSLSASVGDRVTITCRASQSVSSAVAWYQQKPGKAPKLLIYSASSLYSGVPSRFSGSRSGTDFTLTISSLQPEDFATYYCQQYSGYHFFPITFGQGTKVEIK
In the case of B1, the EC50 (commonly the concentration that produces a half-maximal response) stood at 19 nM.
